Assay results: patent publication US12679878B2, “CRF2 receptor agonists and their use in therapy” (SANOFI, priority 2020, dated 2026)
Starred links: 1 amine or outer side, 2 acyl side, 3 side chain; linkers in the order of their positions; H or OH if unused. Non-standard residues stand in square brackets, D forms with d. Groups on a side chain read outwards from the residue. No end group written: not given here. *: point of attachment. C18 diacid = O=C(O)CCCCCCCCCCCCCCCCC(=O)*; γGlu = O=C(O)[C@H](CCC(=O)[*:2])N[*:1]; Palmitoyl = CCCCCCCCCCCCCCCC(=O)*; AEEA = NCCOCCOCC(=O)O; Aib = CC(C)(N)C(=O)O

B1: SEQ ID NO: 67 (peptide)
peptide: IVLSLDVPIKLK([AEEA-AEEA-γGlu-C18 diacid])QILLEQEKQKKQREQAETNKQILAQV-NH2
modifications: N-terminus assumed
SMILES: CC[C@H](C)[C@H](N)C(=O)N[C@H](C(=O)N[C@@H](CC(C)C)C(=O)N[C@@H](CO)C(=O)N[C@@H](CC(C)C)C(=O)N[C@@H](CC(=O)O)C(=O)N[C@H](C(=O)N1CCC[C@H]1C(=O)N[C@H](C(=O)N[C@@H](CCCCN)C(=O)N[C@@H](CC(C)C)C(=O)N[C@@H](CCCCNC(=O)COCCOCCNC(=O)COCCOCCNC(=O)CC[C@H](NC(=O)CCCCCCCCCCCCCCCCC(=O)O)C(=O)O)C(=O)N[C@@H](CCC(N)=O)C(=O)N[C@H](C(=O)N[C@@H](CC(C)C)C(=O)N[C@@H](CC(C)C)C(=O)N[C@@H](CCC(=O)O)C(=O)N[C@@H](CCC(N)=O)C(=O)N[C@@H](CCC(=O)O)C(=O)N[C@@H](CCCCN)C(=O)N[C@@H](CCC(N)=O)C(=O)N[C@@H](CCCCN)C(=O)N[C@@H](CCCCN)C(=O)N[C@@H](CCC(N)=O)C(=O)N[C@@H](CCCNC(=N)N)C(=O)N[C@@H](CCC(=O)O)C(=O)N[C@@H](CCC(N)=O)C(=O)N[C@@H](C)C(=O)N[C@@H](CCC(=O)O)C(=O)N[C@H](C(=O)N[C@@H](CC(N)=O)C(=O)N[C@@H](CCCCN)C(=O)N[C@@H](CCC(N)=O)C(=O)N[C@H](C(=O)N[C@@H](CC(C)C)C(=O)N[C@@H](C)C(=O)N[C@@H](CCC(N)=O)C(=O)N[C@H](C(N)=O)C(C)C)[C@@H](C)CC)[C@@H](C)O)[C@@H](C)CC)[C@@H](C)CC)C(C)C)C(C)C
B2: SEQ ID NO: 63 (peptide)
peptide: FTLSLDVPIKLKQILLEQQKQKKERQQAETNVQLLERV-NH2
modifications: not fully specified (residue 12); printed as FTLSLDVPIKLK*QILLEQQKQKKERQQAETNVQLLERV-NH2
B3: SEQ ID NO: 61 (peptide)
peptide: FTLSLDVPTKIKQILLKQQKQKKERQQAETNKQLLERV-NH2
modifications: not fully specified (residue 12); printed as FTLSLDVPTKIK*QILLKQQKQKKERQQAETNKQLLERV-NH2
B4: SEQ ID NO: 64 (peptide)
peptide: FTLSLDVPTKIKQILLKQQKQKKERQKAETNVQLLERV-NH2
modifications: not fully specified (residue 12); printed as FTLSLDVPTKIK*QILLKQQKQKKERQKAETNVQLLERV-NH2
B5: SEQ ID NO: 66 (peptide)
peptide: FTLSLDVPIGLKQILLKQQKQKKERQKAETNVQLLERV-NH2
modifications: not fully specified (residue 12); printed as FTLSLDVPIGLK*QILLKQQKQKKERQKAETNVQLLERV-NH2
B6: SEQ ID NO: 68 (peptide)
peptide: IVLSLDVPIKLK([AEEA-AEEA-γGlu-C18 diacid])QILLEQERQKKQREQAETNKQILAQV-NH2
modifications: N-terminus assumed
SMILES: CC[C@H](C)[C@H](N)C(=O)N[C@H](C(=O)N[C@@H](CC(C)C)C(=O)N[C@@H](CO)C(=O)N[C@@H](CC(C)C)C(=O)N[C@@H](CC(=O)O)C(=O)N[C@H](C(=O)N1CCC[C@H]1C(=O)N[C@H](C(=O)N[C@@H](CCCCN)C(=O)N[C@@H](CC(C)C)C(=O)N[C@@H](CCCCNC(=O)COCCOCCNC(=O)COCCOCCNC(=O)CC[C@H](NC(=O)CCCCCCCCCCCCCCCCC(=O)O)C(=O)O)C(=O)N[C@@H](CCC(N)=O)C(=O)N[C@H](C(=O)N[C@@H](CC(C)C)C(=O)N[C@@H](CC(C)C)C(=O)N[C@@H](CCC(=O)O)C(=O)N[C@@H](CCC(N)=O)C(=O)N[C@@H](CCC(=O)O)C(=O)N[C@@H](CCCNC(=N)N)C(=O)N[C@@H](CCC(N)=O)C(=O)N[C@@H](CCCCN)C(=O)N[C@@H](CCCCN)C(=O)N[C@@H](CCC(N)=O)C(=O)N[C@@H](CCCNC(=N)N)C(=O)N[C@@H](CCC(=O)O)C(=O)N[C@@H](CCC(N)=O)C(=O)N[C@@H](C)C(=O)N[C@@H](CCC(=O)O)C(=O)N[C@H](C(=O)N[C@@H](CC(N)=O)C(=O)N[C@@H](CCCCN)C(=O)N[C@@H](CCC(N)=O)C(=O)N[C@H](C(=O)N[C@@H](CC(C)C)C(=O)N[C@@H](C)C(=O)N[C@@H](CCC(N)=O)C(=O)N[C@H](C(N)=O)C(C)C)[C@@H](C)CC)[C@@H](C)O)[C@@H](C)CC)[C@@H](C)CC)C(C)C)C(C)C
B7: SEQ ID NO: 4 (peptide)
peptide: IVLSLDVPIGLK([γGlu-Palmitoyl])QKLLKQEKQEKEKQQAETNAKILAQV-NH2
modifications: N-terminus assumed
SMILES: CCCCCCCCCCCCCCCC(=O)N[C@@H](CCC(=O)NCCCC[C@H](NC(=O)[C@H](CC(C)C)NC(=O)CNC(=O)[C@@H](NC(=O)[C@@H]1CCCN1C(=O)[C@@H](NC(=O)[C@H](CC(=O)O)NC(=O)[C@H](CC(C)C)NC(=O)[C@H](CO)NC(=O)[C@H](CC(C)C)NC(=O)[C@@H](NC(=O)[C@@H](N)[C@@H](C)CC)C(C)C)C(C)C)[C@@H](C)CC)C(=O)N[C@@H](CCC(N)=O)C(=O)N[C@@H](CCCCN)C(=O)N[C@@H](CC(C)C)C(=O)N[C@@H](CC(C)C)C(=O)N[C@@H](CCCCN)C(=O)N[C@@H](CCC(N)=O)C(=O)N[C@@H](CCC(=O)O)C(=O)N[C@@H](CCCCN)C(=O)N[C@@H](CCC(N)=O)C(=O)N[C@@H](CCC(=O)O)C(=O)N[C@@H](CCCCN)C(=O)N[C@@H](CCC(=O)O)C(=O)N[C@@H](CCCCN)C(=O)N[C@@H](CCC(N)=O)C(=O)N[C@@H](CCC(N)=O)C(=O)N[C@@H](C)C(=O)N[C@@H](CCC(=O)O)C(=O)N[C@H](C(=O)N[C@@H](CC(N)=O)C(=O)N[C@@H](C)C(=O)N[C@@H](CCCCN)C(=O)N[C@H](C(=O)N[C@@H](CC(C)C)C(=O)N[C@@H](C)C(=O)N[C@@H](CCC(N)=O)C(=O)N[C@H](C(N)=O)C(C)C)[C@@H](C)CC)[C@@H](C)O)C(=O)O
B8: SEQ ID NO: 69 (peptide)
peptide: IVLSLDVPIKLK([AEEA-AEEA-γGlu-C18 diacid])K[Aib]LLEQERQKKQREQAETNKQILAQV-NH2
modifications: N-terminus assumed
SMILES: CC[C@H](C)[C@H](N)C(=O)N[C@H](C(=O)N[C@@H](CC(C)C)C(=O)N[C@@H](CO)C(=O)N[C@@H](CC(C)C)C(=O)N[C@@H](CC(=O)O)C(=O)N[C@H](C(=O)N1CCC[C@H]1C(=O)N[C@H](C(=O)N[C@@H](CCCCN)C(=O)N[C@@H](CC(C)C)C(=O)N[C@@H](CCCCNC(=O)COCCOCCNC(=O)COCCOCCNC(=O)CC[C@H](NC(=O)CCCCCCCCCCCCCCCCC(=O)O)C(=O)O)C(=O)N[C@@H](CCCCN)C(=O)NC(C)(C)C(=O)N[C@@H](CC(C)C)C(=O)N[C@@H](CC(C)C)C(=O)N[C@@H](CCC(=O)O)C(=O)N[C@@H](CCC(N)=O)C(=O)N[C@@H](CCC(=O)O)C(=O)N[C@@H](CCCNC(=N)N)C(=O)N[C@@H](CCC(N)=O)C(=O)N[C@@H](CCCCN)C(=O)N[C@@H](CCCCN)C(=O)N[C@@H](CCC(N)=O)C(=O)N[C@@H](CCCNC(=N)N)C(=O)N[C@@H](CCC(=O)O)C(=O)N[C@@H](CCC(N)=O)C(=O)N[C@@H](C)C(=O)N[C@@H](CCC(=O)O)C(=O)N[C@H](C(=O)N[C@@H](CC(N)=O)C(=O)N[C@@H](CCCCN)C(=O)N[C@@H](CCC(N)=O)C(=O)N[C@H](C(=O)N[C@@H](CC(C)C)C(=O)N[C@@H](C)C(=O)N[C@@H](CCC(N)=O)C(=O)N[C@H](C(N)=O)C(C)C)[C@@H](C)CC)[C@@H](C)O)[C@@H](C)CC)C(C)C)C(C)C
B9: SEQ ID NO: 60 (peptide)
peptide: FTLSLDVPTKIKQILLKQQKQKKERQQAEKNKQLLERV-NH2
modifications: not fully specified (residue 12); printed as FTLSLDVPTKIK*QILLKQQKQKKERQQAEKNKQLLERV-NH2
B10: SEQ ID NO: 65 (peptide)
peptide: FTLSLDVPIGLKQILLKQQKQKKERQQAETNVQLLERV-NH2
modifications: not fully specified (residue 12); printed as FTLSLDVPIGLK*QILLKQQKQKKERQQAETNVQLLERV-NH2
B11: SEQ ID NO: 3 (peptide)
peptide: IVLSLDVPIKLK([γGlu-Palmitoyl])KILLEQEKQEKEKQQAEKNAQILAQV-NH2
modifications: N-terminus assumed
SMILES: CCCCCCCCCCCCCCCC(=O)N[C@@H](CCC(=O)NCCCC[C@H](NC(=O)[C@H](CC(C)C)NC(=O)[C@H](CCCCN)NC(=O)[C@@H](NC(=O)[C@@H]1CCCN1C(=O)[C@@H](NC(=O)[C@H](CC(=O)O)NC(=O)[C@H](CC(C)C)NC(=O)[C@H](CO)NC(=O)[C@H](CC(C)C)NC(=O)[C@@H](NC(=O)[C@@H](N)[C@@H](C)CC)C(C)C)C(C)C)[C@@H](C)CC)C(=O)N[C@@H](CCCCN)C(=O)N[C@H](C(=O)N[C@@H](CC(C)C)C(=O)N[C@@H](CC(C)C)C(=O)N[C@@H](CCC(=O)O)C(=O)N[C@@H](CCC(N)=O)C(=O)N[C@@H](CCC(=O)O)C(=O)N[C@@H](CCCCN)C(=O)N[C@@H](CCC(N)=O)C(=O)N[C@@H](CCC(=O)O)C(=O)N[C@@H](CCCCN)C(=O)N[C@@H](CCC(=O)O)C(=O)N[C@@H](CCCCN)C(=O)N[C@@H](CCC(N)=O)C(=O)N[C@@H](CCC(N)=O)C(=O)N[C@@H](C)C(=O)N[C@@H](CCC(=O)O)C(=O)N[C@@H](CCCCN)C(=O)N[C@@H](CC(N)=O)C(=O)N[C@@H](C)C(=O)N[C@@H](CCC(N)=O)C(=O)N[C@H](C(=O)N[C@@H](CC(C)C)C(=O)N[C@@H](C)C(=O)N[C@@H](CCC(N)=O)C(=O)N[C@H](C(N)=O)C(C)C)[C@@H](C)CC)[C@@H](C)CC)C(=O)O
B12: SEQ ID NO: 62 (peptide)
peptide: FTLSLDVPIKLKQILLKQQKQKKERQQAETNVQLLERV-NH2
modifications: not fully specified (residue 12); printed as FTLSLDVPIKLK*QILLKQQKQKKERQQAETNVQLLERV-NH2

target: human corticotropin-releasing factor 2α (CRF2 α receptor) (human), Q13324; assay: cell-based or functional assay
Sequence (Q13324 20-411): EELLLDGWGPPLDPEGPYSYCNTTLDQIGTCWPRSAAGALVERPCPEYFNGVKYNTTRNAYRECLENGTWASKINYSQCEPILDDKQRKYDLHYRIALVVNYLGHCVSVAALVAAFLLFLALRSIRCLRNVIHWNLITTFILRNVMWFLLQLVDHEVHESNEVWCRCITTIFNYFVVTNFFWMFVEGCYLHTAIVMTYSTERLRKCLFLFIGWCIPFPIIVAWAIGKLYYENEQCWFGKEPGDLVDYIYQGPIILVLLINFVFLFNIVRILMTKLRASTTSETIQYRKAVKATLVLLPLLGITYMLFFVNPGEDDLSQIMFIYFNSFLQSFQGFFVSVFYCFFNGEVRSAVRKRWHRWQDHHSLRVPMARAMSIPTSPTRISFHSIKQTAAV

**Q.** B1 was tested. Which EC50 [nM], 0% HSA did it give?
**A.** 0.57 nM

**Q.** For B2, which EC50 [nM], 0% HSA is on record?
**A.** 0.63 nM

**Q.** Which EC50 [nM], 0% HSA does the source give for B3 here?
**A.** 0.38 nM

**Q.** For B4, which EC50 [nM], 0% HSA is on record?
**A.** 13.2 nM

**Q.** How did the EC50 [nM], 0% HSA turn out when B5 was run?
**A.** 25.4 nM

**Q.** For B6, which EC50 [nM], 0% HSA is on record?
**A.** 0.2 nM

**Q.** For B7, which EC50 [nM], 0% HSA is on record?
**A.** 0.04 nM

**Q.** B8 was tested. Which EC50 [nM], 0% HSA did it give?
**A.** 0.61 nM

**Q.** With B9 as the binder, how does the EC50 [nM], 0% HSA read?
**A.** 0.48 nM

**Q.** B10 was tested. Which EC50 [nM], 0% HSA did it give?
**A.** 9.31 nM

**Q.** Which EC50 [nM], 0% HSA does the source give for B11 here?
**A.** 0.01 nM

**Q.** For B12, which EC50 [nM], 0% HSA is on record?
**A.** 0.8 nM
